What is called Kd is the concentration at which binding is half-saturated. Read a high Kd as weaker binding.

The data set deals with the molecule itself. Kind of data set: enzyme activity versus enzyme concentration.

B1: SARS main protease (enzyme)
chain: SGFRKMAFPSGKVEGCMVQVTCGTTTLNGLWLDDTVYCPRHVICTAEDMLNPNYEDLLIRKSNHSFLVQAGNVQLRVIGHSMQNCLLRLKVDTSNPKTPKYKFVRIQPGQTFSVLACYNGSPSGVYQCAMRPNHTIKGSFLNGSCGSVGFNIDYDCVSFCYMHHMELPTGVHAGTDLEGKFYGPFVDRQTAQAAGTDTTITLNVLAWLYAAVINGDRWFLNRFTTTLNDFNLVAMKYNYEPLTQDHVDILGPLSAQTGIAVLDMCAALKELLQNGMNGRTILGSTILEDEFTPFDVVRQCSGVTFQ
For the protein B1, the equilibrium dissociation constant (Kd) was found to be 0.015 ± 0.004 µM.
